These results are taken from the supplement of paper PMC12042874.

± gives the uncertainty stated by the source.

The nature of this data set: amyloid nucleation score (Sup35N fusion, yeast selection) (log enrichment); library NNK1; higher = more nucleation; inactive = no reads after selection. Put shortly: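 On medium lacking adenine and uracil, psi-negative yeast expressing peptides of 20 random codons fused to Sup35N were grown 7 days at 30°C after a 24-hour induction with 100 μM copper sulfate. Illumina sequencing of input and output plasmid inserts gave the reads, and sequences under 100 input reads were excluded. The nucleation score is the DiMSum log enrichment of output over input reads, centred on the mode score of non-aggregating sequences.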
For TYNYFCGLVIVVVNGVHLRV, the amyloid nucleation score amounted to 5.507 ± 0.047.

TYPYFDWPFRTRRLMEVSET returned an amyloid nucleation score of -0.4 ± 0.63.

In the case of TYTCPVGNWVRMEGDLYFLA, the amyloid nucleation score is -0.847 ± 1.3.

As to TYVCDMEHSVYCYYVEAQLY, the amyloid nucleation score was determined as 0.49 ± 0.4.

TYWEMVHWGQEASMGSIRRR: the amyloid nucleation score is 1.97 ± 0.24.

Regarding VAASFCYIYRRYPSLFLGSR, the amyloid nucleation score came out at 0.422 ± 0.53.

Consider VACLKRW, for which the amyloid nucleation score was -0.29 ± 0.42.

VACNIGHSYVNYYCRGIILC displayed an amyloid nucleation score of 0.586 ± 0.4.

In the case of VACRRTSKGEYYFQSMICDL, the amyloid nucleation score entry was “inactive”.

VAEWRSMNVGVGRATIEGLS yielded an amyloid nucleation score of 0.579 ± 0.28.

In turn, VALDSSLHTSVYRIVSLSIG had an amyloid nucleation score of -0.159 ± 0.52.

VALLKWFRIWVSFANCLWGR came in with an amyloid nucleation score of 0.128 ± 0.99.

As for VASYFGLVRNSNLDLYLHCR, the amyloid nucleation score was -0.131 ± 0.23.

The substance VAYRVFCD registered an amyloid nucleation score of 0.51 ± 0.36.

Consider VCCSATISTIVFSYFYTGKR, for which the amyloid nucleation score turned out to be 7.506 ± 0.053.

Substance VCILFSAPDNMWFFSD returned an amyloid nucleation score of 1.49 ± 0.45.

VCTNRYGPCSPS had an amyloid nucleation score of 4.26 ± 0.09.

VCVHDLCSLIQLGAYVMRET returned an amyloid nucleation score of 0.383 ± 0.29.

For the substance VCVWCKISPSTYCALIFGDL, the amyloid nucleation score was -0.181 ± 0.32.

For the substance VCYVAMLNHTSPMSLASSAR, the amyloid nucleation score result is “inactive”.

As to VDIKFFMGLAFMWRYSSTAD, the amyloid nucleation score is -0.063 ± 0.39.

VDMNWVITGTNWEFRLRVDA came in with an amyloid nucleation score of 0.24 ± 0.43.

On to VDNDLGQLPGMW, for which the amyloid nucleation score was -0.561 ± 1.7.

With VDNIYAGVELLFSCKM, the amyloid nucleation score is -0.331 ± 0.28.

VDNVRPWRGYQPHSLVLPIV gave an amyloid nucleation score of 0.516 ± 0.47.

Turning to VDQVQDNLKFEIGKYSYWYS, the amyloid nucleation score turned out to be 0.128 ± 0.27.

In turn, VDRILFNVLAVSFDMELRSL gave an amyloid nucleation score of 0.224 ± 0.24.

Regarding VDSLITRSWVDHHNKYNHGI, the amyloid nucleation score came out at 0.635 ± 0.64.

Take VDVYFTSAMLSRLGLVGAVA: the amyloid nucleation score was 0.862 ± 0.64.

Substance VECSCKLRLAASGGNYRGWG came in with an amyloid nucleation score of 2.3 ± 0.25.

Substance VEDENKDSVIKVEKLLPHNL had an amyloid nucleation score of -0.342 ± 0.29.

VEEAYER: the amyloid nucleation score is -0.485 ± 0.5.

On to VEGRVSEFGRLHMSCYTGLR, for which the amyloid nucleation score was -0.076 ± 0.48.

With VELLIEFLSRLGWIGCRHVL, the amyloid nucleation score turned out to be 0.08 ± 0.86.

VEMNFSFVGR returned an amyloid nucleation score of 2.62 ± 0.23.

In the case of VEVATPLTGSLQLPASYIMP, the amyloid nucleation score entry was “inactive”.

Consider VFAFA, for which the amyloid nucleation score came out at 0.126 ± 0.48.

Turning to VFASGAAGTKFWR, the amyloid nucleation score turned out to be 0.302 ± 0.27.

In turn, VFAVERCDFSLRPNVMLVSY showed an amyloid nucleation score of 1.08 ± 0.92.

On to VFHAAVM, for which the amyloid nucleation score was -0.192 ± 0.93.

VFHSMC displayed an amyloid nucleation score of 0.761 ± 0.39.

VFNVV displayed an amyloid nucleation score of -0.605 ± 0.52.

For the substance VFRALKRVISRTYCMISFLK, the amyloid nucleation score was 0.458 ± 0.79.

VFRTLHSPSVSSGRWSSELS: the amyloid nucleation score was -0.475 ± 0.5.

Regarding VFSCLLHYIFKAMLGYSVCL, the amyloid nucleation score is -0.155 ± 0.3.

With VFSCWKAVILIPVQGVLVQR, the amyloid nucleation score is 0.616 ± 0.41.

As for VFTFLSMLRWVIFCNVVGVD, the amyloid nucleation score result was “inactive”.

As for VFTHAFNMLCVFYTSQGLKR, the amyloid nucleation score is 5.35 ± 0.1.

VFTSNGNDLPISRSELRLNL: the amyloid nucleation score entry was “inactive”.

In the case of VFVHFVSQWDFEATWT, the amyloid nucleation score came out at 0.27 ± 0.71.

For the substance VFVICCKRREAG, the amyloid nucleation score was -0.295 ± 0.34.

Take VFVSCIILRRYFYMFLVGPF: the amyloid nucleation score came out at 0.752 ± 0.45.

With VFVVN, the amyloid nucleation score was -0.557 ± 0.55.

In the case of VFWVNFLFYYGSLLHSKGV, the amyloid nucleation score was -1.05 ± 1.

As to VFWWT, the amyloid nucleation score is -0.575 ± 0.29.

VGAFVSRVSLLDADGLLLGS: the amyloid nucleation score was -0.09 ± 0.61.

As for VGDVTGF, the amyloid nucleation score came out at 0.154 ± 0.95.

For VGEALYHESSGTVNLEILCS, the amyloid nucleation score result is “inactive”.

For the substance VGLCYRGKWDGFLDKKVRWK, the amyloid nucleation score was -1.73 ± 2.7.

VGLTARHKCWVGTCRGGPRT displayed an amyloid nucleation score of -0.711 ± 1.3.

VGLVLKIHVYNYFMETAQQS had an amyloid nucleation score of 6.555 ± 0.053.

On to VGNMRYL, for which the amyloid nucleation score is -0.332 ± 0.5.

As for VGNRRYNTSVMALSNQRNTR, the amyloid nucleation score is 0.636 ± 1.

In turn, VGRGSGPRAQYMWLSKTEAG yielded an amyloid nucleation score of -0.2 ± 0.47.

In turn, VGRRNKVAWVKLRHEVRRCV had an amyloid nucleation score of 0.106 ± 0.52.

Substance VGSSNTTNKYPGFCCWRFDG yielded an amyloid nucleation score of 0.444 ± 0.53.

For VGTFTGV, the amyloid nucleation score was -0.189 ± 0.43.

With VGVWLFCLAYWE, the amyloid nucleation score result was “inactive”.

With VGWFFMYVPSSSAVFSKFLN, the amyloid nucleation score result was “inactive”.

VHNPSVNDLYFLVICCVYLF showed an amyloid nucleation score of 0.484 ± 0.26.

The substance VHRRRIRQSAWVRGAVSTFR yielded an amyloid nucleation score of -0.011 ± 0.4.

As for VHSCFHFSNKGRLVWFPSFH, the amyloid nucleation score result was “inactive”.

Consider VHWRYWFVLISLDQRIGKA, for which the amyloid nucleation score amounted to 0.199 ± 0.21.

Turning to VIAFCSRPDC, the amyloid nucleation score stood at 0.425 ± 0.52.

In the case of VIASSATGYIHR, the amyloid nucleation score is 2.46 ± 0.12.

For the substance VIDEFLSMCRVNMMGGVCRV, the amyloid nucleation score stood at 2.28 ± 0.35.

Substance VIERFMAKRPGC showed an amyloid nucleation score of 0.698 ± 0.68.

On to VIFRDPGQRRLSC, for which the amyloid nucleation score is -0.858 ± 2.1.

Consider VIGVGKMLGNNHYPLSDQGL, for which the amyloid nucleation score is -0.05 ± 0.26.

Take VIHYSGLSMVAVQ: the amyloid nucleation score is -0.379 ± 0.49.

With VINCITRLDVQYRKHTPFAN, the amyloid nucleation score is -0.382 ± 0.3.

VISSSVWFFATMQDCWVGRQ showed an amyloid nucleation score of 0.509 ± 0.69.

Regarding VKESRCCSYGTVRSISQGLG, the amyloid nucleation score is -0.512 ± 0.89.

Substance VKEWGTNSVLGSYTVAQEMS gave an amyloid nucleation score of 0.096 ± 0.94.

Take VKHFLSDMRLFIGPKIFMRC: the amyloid nucleation score was 4.49 ± 0.062.

Substance VKLCRACCYEYWRHHSPLGC registered an amyloid nucleation score of 0.594 ± 0.43.

VKLFSVNKNNMTVPSTALCS gave an amyloid nucleation score of 5.969 ± 0.047.

VKRLTRAVFCSFKSRVARSS showed an amyloid nucleation score of 0.238 ± 0.58.

VKRRVSDTHVSCVKGHGSVC: the amyloid nucleation score result is “inactive”.

In turn, VKSNFLHSGKIGYTSAVGFG yielded an amyloid nucleation score of -1.16 ± 1.9.

For the substance VKSQCECHVSSFALFCWARD, the amyloid nucleation score came to 3.85 ± 0.1.

As for VKTNWLNWWLLNGLRASRCL, the amyloid nucleation score turned out to be 0.062 ± 0.58.

VKTPTDRSYRLHGNFIGCWA displayed an amyloid nucleation score of -0.576 ± 0.38.

In the case of VKYSVENCMITWDVYMGASL, the amyloid nucleation score was -0.561 ± 0.29.

In the case of VLCLWISGLPVLCSVCDPLV, the amyloid nucleation score turned out to be 0.1 ± 0.45.

Take VLCNFWMD: the amyloid nucleation score was 2.9 ± 0.17.

Take VLCSMDSVGSSGASGIFTYM: the amyloid nucleation score was -0.025 ± 0.4.

VLDYGIVFNVVLLICIRTTE showed an amyloid nucleation score of 4.87 ± 0.064.

With VLEDDSDWGSRFVRRGYIKT, the amyloid nucleation score came out at 1.15 ± 0.61.

Turning to VLFAR, the amyloid nucleation score was found to be 0.566 ± 0.48.

In turn, VLFGTCCRVILLWSV registered an amyloid nucleation score of 2.04 ± 0.43.

As to VLFIWTLF, the amyloid nucleation score came to 0.341 ± 0.26.

Regarding VLGKCVNR, the amyloid nucleation score is -0.366 ± 0.21.

As for VLGLGRENSLRVNFYRLCKS, the amyloid nucleation score entry is “inactive”.

VLHFHVDDMDYNFFSW: the amyloid nucleation score turned out to be 0.578 ± 0.33.

In turn, VLIINFLPVWWKTYLSMMIR returned an amyloid nucleation score of -0.256 ± 0.45.

Regarding VLLACGIFKDPTSCFCMLSL, the amyloid nucleation score was -0.432 ± 0.48.

As to VLLVRSNKSKLDRHRDWSGK, the amyloid nucleation score was 0.466 ± 1.4.

For the substance VLLYHNEDHWFCSRYYSSVS, the amyloid nucleation score result was “inactive”.

Consider VLQDSGIAAYKYSGSCDCSF, for which the amyloid nucleation score is -1.07 ± 0.58.

VLQRVQKPLLCMRVLDIYAW yielded an amyloid nucleation score of -0.11 ± 0.43.

For VLSHVGFKSRMSVTNPGCLD, the amyloid nucleation score was -0.562 ± 0.81.

On to VLTFPLFCIGKLIKN, for which the amyloid nucleation score was determined as 6.033 ± 0.045.

As to VLYGGDLALLSFDTGHPLFL, the amyloid nucleation score was 0.297 ± 0.38.

Substance VMDVFV registered an amyloid nucleation score of -0.292 ± 0.62.

In the case of VMGFGTCVRKQCSNYLKGIE, the amyloid nucleation score came to 0.476 ± 0.63.

Take VMGNTDVVSDVSWVKCQKLK: the amyloid nucleation score amounted to 0.328 ± 0.32.

Substance VMKELLMTHLLSCCLYSLCL came in with an amyloid nucleation score of 1.28 ± 0.34.

On to VMKLDGDPKQVFPGYSLMEG, for which the amyloid nucleation score was -0.092 ± 0.36.

On to VMLSSSGYELHVWRVGGSDG, for which the amyloid nucleation score came out at 0.093 ± 0.75.

VMRVFILSMFWIVSECNRSY came in with an amyloid nucleation score of 2.38 ± 0.23.

In the case of VMYPRATLSQLRLKVTN, the amyloid nucleation score is -0.116 ± 0.4.

Take VNCGRMSAGCREVGWVDGES: the amyloid nucleation score was -0.316 ± 0.89.

VNDYWNFCYVCWKYQSIILY yielded an amyloid nucleation score of 3.14 ± 0.18.

Take VNKGFHFLILTTIINVDYGG: the amyloid nucleation score was 4.64 ± 0.07.

VNLFVLYPIYLFGSCSHNLM yielded an amyloid nucleation score of 7.373 ± 0.053.

In the case of VNPFIFLNRNCAPILGWTCC, the amyloid nucleation score was 3.11 ± 0.11.

VNSVCSGGALMPGFKCAQLK registered an amyloid nucleation score of -0.169 ± 0.81.

The substance VNVITCLY showed an amyloid nucleation score of -1.33 ± 1.4.

In turn, VNVLRTII registered an amyloid nucleation score of 0.255 ± 0.27.

Regarding VPDESDHFSFRVEMLSLKVD, the amyloid nucleation score was -0.639 ± 0.45.

Substance VPFLWLRLCRRCYLTMGCSI came in with an amyloid nucleation score of -0.491 ± 0.97.

In turn, VPGLRI returned an amyloid nucleation score of 0.584 ± 0.54.

Regarding VPILIVFQQVADASRIRIMR, the amyloid nucleation score came to 4.77 ± 0.059.

The substance VPLRTWLITWLGYNSHNWLC had an amyloid nucleation score of -0.302 ± 0.76.

VPVVRYYFTQFMDKYADDMF: the amyloid nucleation score amounted to 1.36 ± 0.58.

Regarding VQFLLYSGFVQTILMPKASR, the amyloid nucleation score stood at 3.02 ± 0.15.

In the case of VQVQVGSFELNSGQRRSVLK, the amyloid nucleation score was -0.516 ± 1.3.
